Consider 32 sequences from a protein production outcome set (Wang et al. 2014).

The nature of this data set: label from the status in PepcDB records.
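Further: failed if final PepcDB status was selected cloned or expressed and not failed if soluble or beyond.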

On to “KEKDTIAAEHKQEASVLLNLHRNKINYLIGETMARMTSLSIAIDRPVDIKKMQSILEKTFDSEPRFSGLYFLNAKGDVTASTTELKTKVNLADRSFFIKAKETKKTVISDSYSSRITGQPIFTICVPVLDSKRNVTDYLVAAIQIDYLKNLINLLSPDVYIEVVNQDGKMIFASGQASHAEDQKPVSGYLDDISWNMKVYPNPVTIEEL”, for which the protein production result is reported as “not failed”.
To “KEMKQIQNEFKERMDEGELLNCMRCGFCLPSCPTYIESGFQETHSPRGRIALMKAVADGMIEPDEDVERSLSLCLGCRACEPVCPSGVKYGQLLEEARDIIHQNKKHSLGE” belongs “failed”; to “KFTELEFHRIIGTGQFGLVRVVRNIKTNEVYALKVMHKAPIVESKQIEHVINERKILEEACTHPFCVRLCGAYQDKASLYLLQEWVPGGELFHHLDVEGAFDEPTAMFYAANVLLALEFLHAKGIVYRDLKPENLLLDTQGYIKMADFGFAKYIGGDKTYTICGTPDYQAPEVIMRRGTTKAADYWALGVLIFEMLVGDPPFKSLTGDPWDTFRRTLSGRFYVPNFISDQAADLIFKLLQVNPDKRLGSDKRLGAEEIKRHRWFSRIDWRALEQKKLPSPFRPRVRNPLDTSNFDNFDN”, “not failed”; to “KGDDNYYIIFTSGTTGQPKGVQISHDNLLSFTNWMIEDAAFDVPKQPQMLAQPPYSFDLSVMYWAPTLALGGTLFALPKELVADFKQLFTTIAQLPVGIWTSTPSFADMAMLSDDFCQAKMPALTHFYFDGEELTVSTARKLFERFPSAKIINAYGPTEATVALSAIEITREMVDNYT”, “failed”.
In the case of “KGKIQEADNAAKLSAIKFVLKDPLTGDYLVDEKEIEEIVKKTGIETVVLKEYKEGVVLGPLYEFVTKDGRNAYVLSGYAPGFGGNVTVVACFIKTEDGFMLNSVRVIDYSQETPGLGAKIGEESIQRRFFPVPPEGLKNGLRVDKDAGLPKGSPEELKKQGIVKVSDVMTGATITPRAVVTALNLMYRYLEEVSK” it was “not failed”; in that of “KKAVINDSNTPLHLLQPAYQGTYGDLTPEQVKKDIDRVFAYIDKETPARVVDKNTGKVITDYTAMGDEAQLERGAFRLASYEWGVTYSALIAAAETTGDKRYTDYVQNRFRFLAEVAPHFKRVYEEKGKTDSQLLQILTPHALDDAGAVCTAMIKLRLKDESLPVDGLIQNYFDFIINKEYRLADGTFARNRPQRNTLWLDDMFMGIPAVAQMSRYDKEAKNKYLAEAVKQFLQFADRMFIPEKGLYRHGWVESSTDHPAFCWARANGWALLTACELLDVLPEDYPQRPKVMDYFRAHVRGVTALQSGEGFWHQLLDCNDSYLETSATAIYVYCLAHAINKGWIDAIAYGPVAQLGWHAVAGKINEEGQVEGTCVGTGMAFDPAFYYYRPVNVYAAHGYGPVLWAGAEMIRLLNTQHPQMNDSAVQYYQEKQKTTAPIFAVDSE”, “not failed”; in that of “KKFEQVIYRGITEGKSSNEIREELVHQAGMSSDKAAFIARDQTGTILGQMNSERQKRAGFQAFRWSDSGDERVRDSHRERNGKIYFYADNPLLPGEEYNCRCVAE”, “failed”.
For the sequence “KLKISEASLEDYSEVVHLFNRNHVYQFPDGRPLTVDDLDLTLKVKEVTHLFLLKNHGVLIGTSAFFKFITYGCLDWNSSFSGFLLIDSKSRSGQAITYLYKTILKKITKLKFSNIYTEISNYNKPSLALSKLNGFKEYDKTYEDILHCRSLRSHL”, the protein production result is on record as “failed”.
Consider “KMFFKVIDTLSDNYEKEMLLLEAEAKEQYYQELEKSSREVRKIKHDLKNMLLAICGKAKKQNEISEEIYKIIKELDESDKKIYTSNVVINTIINHKISQAKKLEIKTDVNIKVSKAIHIDYKDAGILLGNILDNAIEACEKIKKKERWIKIDMLHNKNTLFIEVCNSKGKELTNISKSSKSDAHNHGIGISSIKAITKKYDGYVEFVDKGEEFEVVVNLYGMSF”, for which the protein production result is on record as “failed”.
For “KNIEETELVVEEMLEQYPNGKIVRLLFHGEQAKLPIISHIVQEYQVEVSIIQGNIQQTKQGAVGSLYIQLLGEEQNILAAIEGLRKLRVETEVIGNE”, the protein production entry is listed as “not failed”.
With “KPIKIRGPSHCAGCKEEIKHGQSLLALDKQWHVSCFKCQTCSVILTGEYISKDGVPYCESDYHAQFG”, the protein production result is “not failed”.
In the case of “KRYIRKEAADALKTMFDAAKKEGYELAAVSGYRSYDRQKVIFDNEVSLKGERKAKEAVAYPGESEHQTGLAMDISSRSNGFELNEAFGSTADGKWVQDNAYKYGFIIRYPKNKEDITKYEYEPWHLRYVGK” it was “not failed”; in that of “KSEIGKYAPFFSLPNAKGEKITRSSDAFKQKSLLINFWASWNDSISQKQSNSELREIYKKYKKNKYIGMLGISLDVDKQQWKDAIKRDTLDWEQVCDFGGLNSEVAKQYSIYKIPANILLSSDGKILAKNLRGEELKKKIENIVEEA”, “not failed”; in that of “KSEKRMKLTLKGGAAVDPDSGLEHSAHVLEKGGKVFSATLGLVDIVKGTNSYYKLQLLEDDKENRYWIFRSWGRVGTVIGSNKLEQMPSKEDAIEHFMKLYEEKTGNAWHSKNFTKYPKKFYPLEI”, “not failed”.
Regarding “KSPVREPVDNLSPEERDARTVFCMQLAARIRPRDLEDFFSAVGKVRDVRIISDRNSRRSKGIAYVEFCEIQSVPLAIGLTGQRLLGVPIIVQASQAEKNRL”, the protein production entry is given as “not failed”.
Consider “KTFAALGSGVIGSGWIARALAHGLDVVAWDPAPGAEAALRARVANAWPALRKQGLAPGAAQERLRFVASIEECVGDADFIQESAPERLDLKLDLHARISAAARPDVLIGSSTSGLLPSEFYAEASHPERCLVGHPFNPVYLLPLVEVVGGERTAAEAVRAAMRVYESLGMRPLHVRKEVPGFIADRLLEALWREALHLVNDGVATTGEIDDAIRFGAGLRWSFMGTFLTYTLAGGNAGMRHFMAQFGPALQLPWTYLPAPELTEALIDRVVEGTAEQQGARSIAELERYRDDCLLAVLGAIRETKARHGFA”, for which the protein production entry is “failed”.
“KTPIQVLHEYGMKTKNIPVYECERSDVQIHVPTFTFRVTVGDITCTGEGTSKKLAKHRAAEAAINILKANA”: the protein production result is listed as “not failed”.
In the case of “KVKSGWLDKLSPQGKRMFQKRWVKFDGLSISYYNNEKEMYSKGIIPLSAISTVRVQGDNKFEVVTTQRTFVFRVEKEEERNDWISILLNALKSQSLTSQSQA”, the protein production entry is reported as “not failed”.
For the sequence “KVVFAKEQPAHREVQAEAGASATLSCEVAQAQTEVTWYKDGKKLSSSSKVRVEAVGCTRRLVVQQAGQAEAGEYSCEAGGQQLSFRLQVAGQCFG”, the protein production entry is on record as “not failed”.
For “LAAESQADYLGFIFAESKRKVSPEDVKKWLNQVRVEKQVAGVFVNESIETMSRIAKSLKLDVIQLHGDEKPADVAALRKLTGCEIWKALHHQDNTTQEIARFKDNVDGFVIDSSVKGSRGGTGVAFSWDCVPEYQQAAIGKRCFIAGGVNPDSITRLLKWQPEGIDLASGIEKNGQKDQNLMRLLEERMNRYVSISE”, the protein production entry is given as “failed”.
In the case of “LAPPRHLGFSDVSHDAARVFWEGAPRPVRLVRVTYVSSEGGHSGQTEAPGNATSAMLGPLSSSTTYTVRVTCLYPGGGSSTLTGRVTTKKAPSPS” it was “not failed”; in that of “LDDLSEFVDQVPLLDHHCHFLIDGKVPNRDDRLAQVSTEADKDYPLADTKNRLAYHGFLALAKEFALDANNPLAAMNDPGYATYNHRIFGHFHFKELLIDTGFVPDDPILDLDQTAELVGIPVKAIYRLETHAEDFMLEHDNFAAWWQAFSNDVKQAKAHGFVGFKSIAAYRVGLHLEPVNVIEAAAGFDTWKHSGEKRLTSKPLIDYMLYHVAPFIIAQDMPLQFHVGYGDADTDMYLGNPLLMRDYLKAFTKKGLKVVLLHCYPYHREAGYLASVFPNLYFDISLLDNLGPSGASRVFNEAVELAPYTRILFASDASTYPEMYGLAARQFKQALVAHFNQLPFVDLAQKKAWINAICWQTSAKLYHQERELRV”, “not failed”; in that of “LEDFNVTSKVIELDVRKPTPEAAENLNIGMDEDIYYVKRVRYINGQTLCYEESYYTKSIVTYLNNEIVSHSIFHYIREGLGLKIGFSDLFLHVGQLNEEEAEYLGLEAGLPKLYIESIFHLTNGQPFDYSKISYNYEQSQFVVQANSFLL”, “failed”.
Turning to “LESSMNKFHALFDSVMDACVIIDKRGVIKECNAALQTLLGVEDKTALVGTSLTQFHLADTFMGSAVQIAQSVEDVLKQGLLKFEADITDSQGQSIPAEVTLKSIELNTERFVLATYHNLAERRLVDRLIRHERNLLKNVLGMSPIGVWVCVNGTCRYVNAQMTLM”, the protein production result is given as “failed”.
Turning to “LGTLFFSLEYNFERKAFVVNIKEARGLPAMDEQSMTSDPYIKMTILPEKKHKVKTRVLRKTLDPAFDETFTFYGIPYTQIQELALHFTILSFDRFSRDDIIGEVLIPLSGIELSEGKMLMNREII”, the protein production result is listed as “not failed”.
In the case of “LKKAGGALIAGVLKNGPADDAGIKPGDVLVAVNGKPIFNSSEMLNMVASLAPGKSATLTILRHGGQQDIQVRIGKRPS” it was “failed”; in that of “LLADGQLQDWHDSTVYEIYHHWRHRYPKGVFENREHLFSAEIPRDTPIALQPEEHVSYGWFDMEEAAEKVFSPSNRRAILELGRFLGKR”, “failed”; in that of “LLHGDFELAVPGGPVAAYYAAPAGREQLPIVLVVQEIFGLHEHIKDVCRRLAHDGYLAVSVNLYQRQGDASRYDNIPGLVAELVSKVPDEQVHADLDASLAWAAAHGGDGARVGVTGFCWGGRTTWMYAARNPAVKAGVAWYGRLSSGHGPLIKQVPLDVAGSLHAPVLGLYGGKDESIPLDDVRAMEARLQQGGAPAQASRIVVYPQAGHAFLADYRPSYRAADAQDGWRRMLDWFALYL”, “not failed”.
As for “LLLEIGLEEMPARFLNESMVQLGDKLTGWLKEKNITHGEVKLFNTPRRLAVFVKDVAEKQDDIKEEAKGPAKKIALDADGNWTKAAIGFSKGQGANVEDLYIKEVKGIEYVFVQKFQAGQETKSLLPELSGLITSLHFPKNMRWGNEDLRYIRPIKWIVALFGQDVIPFSITNVESGRTTQGHRFLGHEVSIESPSAYEEQLKGQHVIADPSVRKQMIQSQLETMAAENNWSIPVDEDLLDEVNHLVEYPTALYGSFESEFLSIPEEVLVTTMKEHQRYFPVKDKNGDLLPHFITVRNGNSHAIENVARGNEKVLRARLSDASFFYKEDQKLNIDANVKKLENIVFHEELGSLADKVRRVTSIAEKLAVRLQADEDTLKHVKRAAEISKFDLVTHMIYEFPELQGIMGEKYARMLGEDEAVAAAVNEHYMPRSAGGETPSTFTGAVVAMADKLDTIASFFSIGVIPTGSQDPYGLPRQASGIVAILLDRNWGISFEELLTFVQTDKENELLDFFTQRLKYVLNAEQIRHDVIDAVLESSELE”, the protein production entry was “not failed”.
On to “LNHVAEELCAATNESEVFSIITRSASHIISAQRISYCVPNYKDKCFEIRSVFSENEVMKSATVDMENSALQFVLQSGSPQFFENLAVTNFTDHLILSKNGLCSGWSVPVRVKGEIVGLLNAASNVKINERAQQLGVIKMLSGIMGVTLSRVNLQEQLEHQ”, for which the protein production result is on record as “failed”.
Turning to “LNKEGEVERLLGINMDMTEVKQLNEALFQEKERLHITLDSIGEAVVCIDMAMKITFMNPVAEKMSGWTQEEALGVPLLTVLHITFGDNGPLMENIYSADTSRSAIEQDVVLHCRSGGSYDVHYSITPLSTLD”, the protein production result is “failed”.
In the case of “LQTALARLGQWGILSRDLYGFFDQATELIRTALGVDYCGLWELLPNRSALVLCAGDGWDKALVGNYTIDATNRSYAGYTIQHNGDRRMEDYEPIVELDLRISTKFRASPLLHNLGIVSGINLMVAGPRTAFGVLGVYSLTARKFTEEEIEFLKVASHILAAAIDRQEYEERLLLLQQAIDASS” it was “failed”.
